Results reported in patent US20220119492A1 (MEDIKINE, published 2022).

T1: human IL-2Rβ (CD122 protein, Fc Tag) (27-239) (human, UniProt P14784 27-239)
T1 construct: range 27-239; Bought protein; also called hu-IL-2Rβ subunit; IL-2Rβ subunit; not shown: Fc tag of the bought protein
T1 sequence (looked up): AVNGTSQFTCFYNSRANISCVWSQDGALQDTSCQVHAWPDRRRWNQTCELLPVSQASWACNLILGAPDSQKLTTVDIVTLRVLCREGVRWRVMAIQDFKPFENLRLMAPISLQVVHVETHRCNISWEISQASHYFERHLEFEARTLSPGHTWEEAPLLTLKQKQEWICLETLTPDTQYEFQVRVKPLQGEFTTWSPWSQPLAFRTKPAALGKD

T2: human IL-2Rγc (CD132 protein, Fc Tag) (23-254) (human, UniProt P31785 23-254)
T2 construct: range 23-254; Bought protein; also called hu-IL-2Rγc subunit; IL-2Rγc subunit; not shown: Fc tag of the bought protein
T2 sequence (looked up): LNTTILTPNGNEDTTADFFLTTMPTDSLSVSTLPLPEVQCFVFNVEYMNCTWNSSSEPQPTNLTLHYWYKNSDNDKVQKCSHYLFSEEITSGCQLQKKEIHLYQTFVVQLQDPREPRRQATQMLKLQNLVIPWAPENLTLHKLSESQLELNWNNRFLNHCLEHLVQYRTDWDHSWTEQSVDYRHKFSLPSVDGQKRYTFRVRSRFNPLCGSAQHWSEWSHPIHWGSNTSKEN


Legend:
Test in all cases: competition ELISA, peptide tracer
[1] = molecular target: T1, human IL-2Rβ (CD122 protein, Fc Tag) …
Method: (§1) Binding of Fc fusions to IL-2Rβ and IL-2Rγc were measured using a competition binding ELISA with biotinylated peptide/NeutrAvidin-HRP tracer. ELISA plate was prepared as described in Example 27.
(§2) The plate was washed 4 times with PT (1×PBS, 0.05% Tween® 20) buffer. Fifty (50) μL of IL-2R ligands serially diluted in PBT was added to appropriate wells then incubated at 4° C. for 1 hr.
(§3) At the appropriate time, the precomplexed bn-peptide/NA-HRP tracer was diluted to 2-fold its predetermined binding EC80 (typically 30 to 10 nM) without washing. fifty (50) μL of bn-peptide/NA-HRP tracer was added to each well and incubated at 4° C. for 45 mins.

[2] = molecular target: T3, cynomolgus monkey Rγc subunit (cynomolgus monkey)
T3 construct: also called cyno-IL-2Rγc subunit
Method: as §1, §2, §3

[3] = molecular target: T4, cynomolgus monkey IL-2Rβ subunit (cynomolgus monkey)
T4 construct: Bought protein; also called cyno-IL-2Rβ subunit
Method: as §1, §2, §3

[4] = molecular target: T2, human IL-2Rγc (CD132 protein, Fc Tag) …
Method: as §1, §2, §3

T4 sequence (Q38J85 whole entry): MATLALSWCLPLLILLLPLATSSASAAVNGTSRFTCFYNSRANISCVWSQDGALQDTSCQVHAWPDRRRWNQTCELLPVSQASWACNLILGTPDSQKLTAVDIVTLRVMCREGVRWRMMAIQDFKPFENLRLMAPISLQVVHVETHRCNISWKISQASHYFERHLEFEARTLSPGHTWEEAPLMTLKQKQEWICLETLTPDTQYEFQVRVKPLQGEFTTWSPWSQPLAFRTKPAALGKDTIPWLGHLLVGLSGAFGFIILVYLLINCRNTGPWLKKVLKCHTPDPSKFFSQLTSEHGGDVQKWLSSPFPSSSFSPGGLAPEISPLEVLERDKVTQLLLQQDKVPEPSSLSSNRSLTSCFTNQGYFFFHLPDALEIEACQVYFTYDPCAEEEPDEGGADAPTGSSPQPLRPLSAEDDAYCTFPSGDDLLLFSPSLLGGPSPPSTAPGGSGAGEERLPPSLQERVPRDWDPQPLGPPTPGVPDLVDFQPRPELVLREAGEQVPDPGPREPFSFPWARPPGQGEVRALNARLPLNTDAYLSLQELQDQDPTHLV

Binder | IC50 [1] [µM] | IC50 [2] [µM] | IC50 [3] [µM] | IC50 [4] [µM]
WYPCWIARVGELCDLEEGPVNRGGGGGSGGVVCQDWEGVELCWQGG [SEQ ID NO 4172] | < 100 | < 100 | < 100 | < 100
SEQ ID NO 4173 (peptide) peptide: GGGELLVDCFKVKVGELCDLFFGGGGGSGGGGSGGVVCQDWEGVELCWQGG | < 100 | < 100 | < 100 | < 100
SEQ ID NO 4174 (peptide) peptide: GGGELLVDCFKVKVGELCDLFFGGGGGSGGGGSGGGGSGGVVCQDWEGVELCWQGG | < 100 | < 100 | < 100 | < 100
SEQ ID NO 4175 (peptide) peptide: GGRYVHDCFIAQVGDLCDLFLHGGGGSGGGGSGGGGSGGGGSGGVVCQDWEGVELCWQGG | < 100 | < 100 | < 100 | < 100
SEQ ID NO 4176 (peptide) peptide: GGRYVHDCFIAQVGDLCDLFLHPAPAPAPAPAPAPAPAGVVCQDWEGVELCWQGG | < 100 | < 100 | < 100 | < 100
SEQ ID NO 4182 (peptide) peptide: GGRYVHDCFIAQVGDLCALFLHPAPAPAPAPAPAPAPAGVVCQDWEGVELCWQGG | < 100 | < 100 | < 100 | < 100
SEQ ID NO 4183 (peptide) peptide: GGRYVHDCFIAQAGDLCDLFLHPAPAPAPAPAPAPAPAGVVCQDWEGVELCWQGG | < 100 | < 100 | < 100 | < 100
SEQ ID NO 4184 (peptide) peptide: GGRYVHDCFIAQVGDACDLFLHPAPAPAPAPAPAPAPAGVVCQDWEGVELCWQGG | < 100 | < 100 | < 100 | < 100
SEQ ID NO 4185 (peptide) peptide: GGRYVHDCFIGQVGDLCDLFLHPAPAPAPAPAPAPAPAGVVCQDWEGVELCWQGG | < 100 | < 100 | < 100 | < 100
SEQ ID NO 4177 (peptide) peptide: GGELLVDCFKVKVGELCDLFFGPAPAPAPAPAPAPAPAPAPAPAVVCQDWEGVELCWQGG | < 100 | < 100 | < 100 | < 100
SEQ ID NO 4178 (peptide) peptide: GGELLVDCFKVKVGELCDLFFGPAPAPAPAPAPAPAPAGVVCQDWEGVELCWQGG | < 100 | < 100 | < 100 | < 100
SEQ ID NO 4181 (peptide) peptide: GGELLVDCFRVRVGELCDLFFGPAPAPAPAPAPAPAPAGVVCQDWEGVELCWQGG | < 100 | < 100 | < 100 | < 100
LVDCFKVKVGELCDLFFGPAPAPAPAPAPAPAPAGVVCQDWEGVELCWQ [SEQ ID NO 4179] | < 100 | < 100 | < 100 | < 100
VDCFKVKVGELCDLFFGPAPAPAPAPAPAPAPAGVVCQDWEGVELCWQ [SEQ ID NO 4180] | < 100 | < 100 | < 100 | < 100
GGELLVDCFRVRVGELCDLFFGGG [SEQ ID NO 3128] | < 100 | – | < 100 | –
GGRYVHDCFIAQVGDLCDLFLHGG [SEQ ID NO 3147] | < 100 | – | < 100 | –
GGRYVHDCFAAQVGDLCDLFLHGG [SEQ ID NO 3170] | < 100 | – | < 100 | –

Binder | IC50 [1] [µM] | IC50 [2] [µM] | IC50 [3] [µM] | IC50 [4] [µM]
GGRYVHDCFIGQVGDLCDLFLHGG [SEQ ID NO 3171] | < 100 | – | < 100 | –
GGRYVHDCFIAAVGDLCDLFLHGG [SEQ ID NO 3172] | < 100 | – | < 100 | –
GGRYVHDCFIAQAGDLCDLFLHGG [SEQ ID NO 3173] | < 100 | – | < 100 | –
GGRYVHDCFIAQVADLCDLFLHGG [SEQ ID NO 3174] | < 100 | – | < 100 | –
GGRYVHDCFIAQVGDACDLFLHGG [SEQ ID NO 3176] | < 100 | – | < 100 | –
GGAYVHDCFIAQVGDLCDLFLHGG [SEQ ID NO 3177] | < 100 | – | < 100 | –
GGRAVHDCFIAQVGDLCDLFLHGG [SEQ ID NO 3178] | < 100 | – | < 100 | –
GGRYAHDCFIAQVGDLCDLFLHGG [SEQ ID NO 3179] | < 100 | – | < 100 | –
GGRYVADCFIAQVGDLCDLFLHGG [SEQ ID NO 3180] | < 100 | – | < 100 | –
GGRYVHDCFIAQVGDLCDLFLAGG [SEQ ID NO 3182] | < 100 | – | < 100 | –
GGRYVHDCFIAQVGDLCDLFAHGG [SEQ ID NO 3183] | < 100 | – | < 100 | –
GGRYVHDCFIAQVGDLCDAFLHGG [SEQ ID NO 3185] | < 100 | – | < 100 | –
GGRYVHDCFIAQVGDLCALFLHGG [SEQ ID NO 3186] | < 100 | – | < 100 | –
GGRYVHDCFIGAVGDLCDLFLHGG [SEQ ID NO 3200] | < 100 | – | < 100 | –
GGAYVHDCFIGQVGDLCDLFLHGG [SEQ ID NO 3202] | < 100 | – | < 100 | –
GGRYVHDCFIGQVGDLCALFLHGG [SEQ ID NO 3204] | < 100 | – | < 100 | –
